B1: KPA27: human anti-O1 antigen antibody, VH SEQ ID NO:21, VL SEQ ID NO:22, isolated as IgG2 (antibody, V domains shown)
VH: QVQLVQSGAEVKKPGASVKVSCKASENTFNDFYMHWVRQAPGQGLEWMGWIHPDGVVTNYAQKFQGRVTMTRDTSINTVYMELNGLISDDTAVYYCMRDGPGSEGSWFDYWGQGTLVTVSS
VL: DIQMTQSPSTLSASVGDRVTITCRASQPVSNRLAWYQQKPGRAPTLLIYKASTLQSGVPLRFSGSGSGTEFTLTISSLQSDDFATYYCQQSQTFGQGTKVEIK
modifications: KPA27 VH Amino Acid Sequence; KPA27 VL Amino Acid Sequence
B2: KPE33V2016: sequence optimized KPE33, VH SEQ ID NO:12, VL SEQ ID NO:13 (antibody, V domains shown)
VH: EVQLVESGGGLVQPGRSLRLSCAASGFIFDDYAMHWVRQAPGKGLEWVSGIAWKSGATNYADSVKGRFAISRDNSKKSMYLQMNSLGTEDTALYYCTRRRASGDDTFYYFDYWGQGTLVTVSS
VL: EIVLTQSPATLSLSPGERATLSCRASQNVNTNLAWYQQKPGQAPRLLIYDASNRATGIPARFSGSGSGTDFTLTISSLEPEDFAVYYCQQTTNWRYTFGQGTKLEIK
modifications: KPE33V2016 VH Amino Acid Sequence; KPE33V2016 VL Amino Acid Sequence
B3: KPB202: human anti-O1 antigen antibody from tonsillar B cells, VH SEQ ID NO:39, VL SEQ ID NO:40, IgG1 (antibody, V domains shown)
VH: EVQLVESGGGLVQPGGSLSLSCAASGFTFSNFWVGWGRQAPGKGLEWVANINPDGSEKYYVDSVKGRVTISRDNAKNSLSLQMNSLRVEDAAVYYCARLGPFHPDCWGQGTLVTVSS
VL: DVVMTQSPLSLPVTLGQPASISCRSSQSLVHSDGNTYLNWFQQRPGQSPRRLIYEVSNRDSGVPDRFSGSGSGTDFTLKISRVEAEDIGVYYCMQGTHWPWTFGQGTKVEIK
modifications: KPB202 VH Amino Acid Sequence; KPB202 VL Amino Acid Sequence
B4: KPJ4: human anti-O1 antigen antibody from tonsillar B cells, VH SEQ ID NO:30, VL SEQ ID NO:31, IgG2 (antibody, V domains shown)
VH: QVQLQQSGPGLVRPSQTLSLTCAISGDSVSSNTAAWNWIRQSPSRGLEWLGRTYYRSEWYNDYAVSVKSRITINPDTSKNQFSLQLNSVTPEDTAVYYCARISWNDLPAWGQGTLVTVSS
VL: DIVMTQSPDSLAVSLGERATINCKSSQSILYSSHNKNYLAWYQQKPGQPPKVLIYWASTRESGVPDRFSGSGSGTDFTLTISNLQAEDVAVYYCQQYCNIPYTFGQGTKLEIK
modifications: IgG2 constant regions; KBJ4 VH Amino Acid Sequence; KPJ4 VL Amino Acid Sequence

Legend:
[1] = test system: K. pneumoniae strain Kp4211 lux; test: high throughput serum bactericidal assay (SBA), complement-dependent killing; format: cell-based, Klebsiella pneumoniae; details: for complement-dependent killing in SBA: FIG. 1B; for complement-dependent killing (SBA) in primary screening: strain Kp4211 (LPS-O1)
Method: Peripheral blood mononuclear cells (PBMC) and sera were separated from buffy coats from healthy blood donors (N=567). PMBC were stored in liquid nitrogen whereas the plasma was stored at 4° C. To identify Klebsiella pneumoniae immune donors, all the available sera were tested for binding to Kp43816 and Kp4211 (LPS-O1 serotype), as well as to the unencapsulated mutant strain Kp43816ΔcpsB and the double mutant Kp43816ΔcpsBΔwaaL. […] In addition, all available sera were tested for their bactericidal activity in the presence of complement using a high-throughput serum bactericidal assay (SBA assay). Overnight cultures of luminescent K. pneumoniae strain 4211 (lux) were diluted in Muller Hinton II media to make OD600 to be 0.003. Equal volume of sera, 4211 lux, and baby rabbit serum (Cedarlane) were mixed in 384 well plates and incubated at 37° C. for two hours with shaking (250 rpm). The relative light units (RLUs) were then measured using an Envision Multilabel plate reader (Perkin Elmer). The percentage of killing was determined by comparing RLU derived from assays with no antibodies to RLU obtained from human sera.
The susceptibility of the K. pneumoniae strain Kp4211 lux to serum and antibody dependent killing was measured by high throughput serum bactericidal assay (SBA). Overnight cultures of luminescent K. pneumoniae strain 4211 (lux) were diluted in Muller Hinton II media to make OD600 to be 0.003. Equal volume of antibodies, 4211 lux, and baby rabbit serum (Cedarlane) were mixed in 384 well plates and incubated at 37° C. for two hours with shaking (250 rpm). The relative light units (RLUs) were then measured using an Envision Multilabel plate reader (Perkin Elmer). The percentage of killing was determined by comparing RLU derived from assays with no antibodies to RLU obtained from anti-K. pneumoniae mAbs and a negative control mAb.

[2] = test system: K. pneumoniae capsule mutant strain 43816ΔcpsB Lux; test: bioluminescent opsonophagocytic killing (OPK) assay with HL-60 cells; format: cell-based, Klebsiella pneumoniae; details: for induction of OPK killing: FIG. 1C
Method: (§1) PBMC donors were ranked based on their binding titers as well as their SBA and OPK activity. OPK assays were performed as described with modifications (Wang, Q. et al. Target-Agnostic Identification of Functional Monoclonal Antibodies Against Klebsiella pneumoniae Multimeric MrkA Fimbrial Subunit J Infect Dis. 2016 Jun. 1; 213(11):1800-8). Briefly, log phase cultures of luminescent K. pneumoniae capsule mutant strain 43816ΔcpsB (43816ΔcpsB Lux) were diluted to ˜2×10^6 cells/ml. Bacteria, diluted baby rabbit serum providing complement (Cedarlane, pre-absorbed with Kp43816ΔcpsB, 1:10), dimethylformamide (DMF) differentiated HL-60 cells, and sera were mixed in 384-well plates and incubated at 37° C. for two hours with shaking (250 rpm). The relative light units (RLUs) were then measured using an Envision Multilabel plate reader (Perkin Elmer). The percentage of killing was determined by comparing RLU derived from assays with no antibodies to RLU obtained from human sera.
as §1, with “OPK” for “PBMC donors were ranked based on their binding titers as well as their SBA and OPK activity. OPK”, “al., J. Infect.” for “al. Target-Agnostic Identification of Functional Monoclonal Antibodies Against Klebsiella pneumoniae Multimeric MrkA Fimbrial Subunit J Infect”, “213:1800-8 (2016)).” for “2016 Jun. 1; 213(11):1800-8).”, “antibodies” for “sera”, “anti-K. pneumoniae mAbs and a negative control mAb.” for “human sera.”

[3] = test system: purified O1 LPS; test: ELISA binding to purified O1 LPS; parameters: species or system Klebsiella pneumoniae; details: FIG. 1A
Method: Binding to purified O1 LPS was assayed by standard ELISA method. Briefly, ELISA plates (Nunc MaxiSorp) were coated with purified O1 LPS in PBS, pH 7.2, overnight at 4 C, followed by blocking the plates with PBS supplemented with 1% BSA (PBS-B). The coated plates were incubated with series dilutions of monoclonal antibodies for 1 h at room temperature. The plates were then washed with PBS containing 0.1% Tween-20 (PBS-T) before HRP-conjugated anti-human secondary antibodies were added for 1 hour followed by TMB TMB (3,3′,5,5′-Tetrametheylbenzidine) substrates. The absorbance of 450 nm was measured by microplate reader (Molecular Devices) and the data were plotted with Prism software.

[4] = test system: Klebsiella pneumoniae of the LPS-O1 serotype; test: primary screening, binding to whole bacteria
From the text: KPA27 and KPE33 were isolated from the peripheral blood of two different immune donors: #487 and #262, respectively. […] KPA27 and KPE33 were isolated from immune donors as IgG2 antibodies.
KPB202 and KPJ4 were isolated from tonsillar B cells of two different donors: T6 (KPB202) and T8 (KPJ4). […] KPB202 and KPJ4 were isolated from donors as IgG1 and IgG2 antibodies, respectively.

[5] = test system: LPS (O1); test: LPS neutralization assay, RAW264.7-lux NF-κB luciferase reporter; format: cell-based, murine
Method: LPS neutralization was assayed by utilizing a murine RAW264.7 macrophage cell line carrying a firefly luciferase reporter gene under the control of an NF-κB-responsive promoter (RAW264.7-lux). Serially diluted antibody stocks were mixed with LPS in a 1:1 ratio and incubated at 4° C. for 1 hr. Antibody/LPS mixture was then diluted 1:10 into assay plates containing pre-seeded RAW264.7-lux cells (5e3 cells/well), which were then placed at 37° C./5% CO2 for 2.5 hours. Following incubations, Steady Glo (Promega) was then added to each well and incubated for another 20 min protected from light. The relative light units (RLUs) were then measured using an Envision Multilabel plate reader (Perkin Elmer). The percentage of inhibition was determined by comparing RLU derived from assays with no antibodies to RLU obtained from anti-K. pneumoniae mAbs and a negative control mAb. Activation of TLR4 receptors by bacterial LPS leads to downstream activation of the NF-κB transcriptional regulator. A decrease in induction of NF-κB-responsive luciferase activity was used to quantify LPS neutralization activity by LPS mAbs.

[6] = biological target: O1 LPS; test: Octet binding affinity to O1 LPS; parameters: species or system Klebsiella pneumoniae; details: average, from on-rate and off-rate, read-out: affinity constant (KD) to O1 LPS
From the text: In order to reduce potential sequence liabilities for antibody development including potential immunogenicity due to anti-drug antibodies, an unpaired Cysteine in the light chain CDR3 of KPE33 was exchanged with Threonine (T), and somatic mutations in the frameworks 1, 2, and 4 of KPE33 were replaced with germ line residues (as summarized in FIG. 5). CDRs were maintained as wildtype, except for the C107T substitution described above. The optimized KPE33 was named KPE33v2016. […] This platform provides a powerful tool to measure the rate of biomolecular complex formation and complex stability in a more biologically meaningful setting. Briefly, Protein A coated sensors were coated with 2 μg/mL O1 LPS for 10 minutes before being dipped into solution containing 0.2 μg/mL anti-O1 LPS mAbs in Kinetics buffer (ForteBio, dilute 10× to 1× with PBS). Changes in the number of molecules bound to the biosensor caused a shift in the interference pattern that was recorded in real time. […] The affinity constant (KD) of KPE33 and KPE33v2016 to O1 LPS was calculated based on the on-rate and off-rate from Octet sensorgram.
KPE33v2016 was further optimized, thereby creating two new variants—KPE33 H32+L2016(1EQ) and KPE33 H33+L2016(1EQ). Both of these variants contain a Methionine to Isoleucine mutation adjacent to CDRH1, a Tryptophan to Tyrosine mutation in CDRH2, an Aspartate to Glutamate mutation adjacent to CDRH2, Asparagine to Glutamine and Methionine to Leucine mutations in FRH3 and an Aspartate to Asparagine mutation in CDRH3. In addition, KPE33 H32+L2016(1EQ) had four FRH3 residues changed to the germ-line residues, whereas KPE33 H33+L2016(1EQ) only has three of the same FRH3 residues changed to the germ-line. Both of these variants contain the same light chain as KPE33v2016, but with a single Glutamate to Glutamine mutation in residue 1.

Row | Molecule | SBA Kp4211lux IC50 [1] [µg/mL] | complement-dependent killing in SBA [1] | complement-dependent killing (SBA) in primary screening [1] | D Capsule OPK IC50 [2] [µg/mL] | induction of OPK killing [2] | binding to purified O1 LPS [3] | binding to bacteria in primary screening [4] | LPS neutralization [5] | Kd [6] [nM] | LPS Neut (O1) IC50 [5] [µg/mL]
1 | B1 | 1.625 | kill K. pneumoniae via complement-dependent killing | mediate complement-dependent killing | 0.67 | induced OPK killing | bound to purified O1 LPS | bind to Klebsiella pneumoniae of the LPS-O1 serotype | did not |  | 
2 | B2 |  |  |  |  |  |  |  |  | 4.13 | 
3 | B3 | 0.0006 | kill K. pneumoniae via complement-dependent killing | mediate complement-dependent killing | 0.0009 | induced OPK killing | bound to purified O1 LPS | bind to Klebsiella pneumoniae of the LPS-O1 serotype | neutralized LPS |  | 0.038
4 | B4 | 0.11 | kill K. pneumoniae via complement-dependent killing | mediate complement-dependent killing | 0.011 | induced OPK killing | bound to purified O1 LPS | bind to Klebsiella pneumoniae of the LPS-O1 serotype | did not |  | 

— patent US12018068B2, “Anti-O1 antibodies and uses thereof” (priority 2016, dated 2024)
